{"source": "paper PMC10540216", "about": "“Activity Guided Azide-methyllysine Photo-trapping for Substrate Profiling of Lysine Demethylases” (Journal of the American Chemical Society, 2023)", "test_system": "KDM4A-I71AzF", "test": "CASI: photo-crosslinking with HEK293T cell extracts, StrepTactin enrichment and LC-MS/MS proteomics;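 also: lysates from HEK293T cells pretreated with a KDM4 inhibitor to raise proteome methylation, affinity-purified after ±UV, gel-resolved, trypsin-digested, with exclusive unique peptides per protein averaged per condition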", "format": "binding, human", "details": "sheet \"Final results but with 0.01\""}
{"molecule": "RRP44_HUMAN (protein, UniProt Q9Y2L1 1-958, looked up) Exosome complex exonuclease …: MLKSKTFLKKTRAGGVMKIVREHYLRDDIGCGAPGCAACGGAHEGPALEPQPQDPASSVCPQPHYLLPDTNVLLHQIDVLEDPAIRNVIVLQTVLQEVRNRSAPVYKRIRDVTNNQEKHFYTFTNEHHRETYVEQEQGENANDRNDRAIRVAAKWYNEHLKKMSADNQLQVIFITNDRRNKEKAIEEGIPAFTCEEYVKSLTANPELIDRLACLSEEGNEIESGKIIFSEHLPLSKLQQGIKSGTYLQGTFRASRENYLEATVWIHGDNEENKEIILQGLKHLNRAVHEDIVAVELLPKSQWVAPSSVVLHDEGQNEEDVEKEEETERMLKTAVSEKMLKPTGRVVGIIKRNWRPYCGMLSKSDIKESRRHLFTPADKRIPRIRIETRQASTLEGRRIIVAIDGWPRNSRYPNGHFVRNLGDVGEKETETEVLLLEHDVPHQPFSQAVLSFLPKMPWSITEKDMKNREDLRHLCICSVDPPGCTDIDDALHCRELENGNLEVGVHIADVSHFIRPGNALDQESARRGTTVYLCEKRIDMVPELLSSNLCSLKCDVDRLAFSCIWEMNHNAEILKTKFTKSVINSKASLTYAEAQLRIDSANMNDDITTSLRGLNKLAKILKKRRIEKGALTLSSPEVRFHMDSETHDPIDLQTKELRETNSMVEEFMLLANISVAKKIHEEFSEHALLRKHPAPPPSNYEILVKAARSRNLEIKTDTAKSLAESLDQAESPTFPYLNTLLRILATRCMMQAVYFCSGMDNDFHHYGLASPIYTHFTSPIRRYADVIVHRLLAVAIGADCTYPELTDKHKLADICKNLNFRHKMAQYAQRASVAFHTQLFFKSKGIVSEEAYILFVRKNAIVVLIPKYGLEGTVFFEEKDKPNPQLIYDDEIPSLKIEDTVFHVFDKVKVKIMLDSSNLQHQKIRMSLVEPQIPGISIPTDTSNMDLNGPKKKKMKLGK", "values": [{"measurement": "Fold change (+UV/-UV)", "value": 0.6}]}
{"molecule": "IPO5_HUMAN (protein, UniProt O00410 2-1097, looked up) Importin-5: AAAAAEQQQFYLLLGNLLSPDNVVRKQAEETYENIPGQSKITFLLQAIRNTTAAEEARQMAAVLLRRLLSSAFDEVYPALPSDVQTAIKSELLMIIQMETQSSMRKKVCDIAAELARNLIDEDGNNQWPEGLKFLFDSVSSQNVGLREAALHIFWNFPGIFGNQQQHYLDVIKRMLVQCMQDQEHPSIRTLSARATAAFILANEHNVALFKHFADLLPGFLQAVNDSCYQNDDSVLKSLVEIADTVPKYLRPHLEATLQLSLKLCGDTSLNNMQRQLALEVIVTLSETAAAMLRKHTNIVAQTIPQMLAMMVDLEEDEDWANADELEDDDFDSNAVAGESALDRMACGLGGKLVLPMIKEHIMQMLQNPDWKYRHAGLMALSAIGEGCHQQMEGILNEIVNFVLLFLQDPHPRVRYAACNAVGQMATDFAPGFQKKFHEKVIAALLQTMEDQGNQRVQAHAAAALINFTEDCPKSLLIPYLDNLVKHLHSIMVLKLQELIQKGTKLVLEQVVTSIASVADTAEEKFVPYYDLFMPSLKHIVENAVQKELRLLRGKTIECISLIGLAVGKEKFMQDASDVMQLLLKTQTDFNDMEDDDPQISYMISAWARMCKILGKEFQQYLPVVMGPLMKTASIKPEVALLDTQDMENMSDDDGWEFVNLGDQQSFGIKTAGLEEKSTACQMLVCYAKELKEGFVEYTEQVVKLMVPLLKFYFHDGVRVAAAESMPLLLECARVRGPEYLTQMWHFMCDALIKAIGTEPDSDVLSEIMHSFAKCIEVMGDGCLNNEHFEELGGILKAKLEEHFKNQELRQVKRQDEDYDEQVEESLQDEDDNDVYILTKVSDILHSIFSSYKEKVLPWFEQLLPLIVNLICPHRPWPDRQWGLCIFDDVIEHCSPASFKYAEYFLRPMLQYVCDNSPEVRQAAAYGLGVMAQYGGDNYRPFCTEALPLLVRVIQSADSKTKENVNATENCISAVGKIMKFKPDCVNVEEVLPHWLSWLPLHEDKEEAVQTFNYLCDLIESNHPIVLGPNNTNLPKIFSIIAEGEMHEAIKHEDPCAKRLANVVRQVQTSGGLWTECIAQLSPEQQAAIQELLNSA", "values": [{"measurement": "Fold change (+UV/-UV)", "value": 1}]}
